# Experimental data: IntAct's records for PubMed 11872753
# B1: Acid-sensing ion channel 3 (Rattus norvegicus (Rat)), O35240 (parent)
# chain: MKPRSGLEEAQRRQASDIRVFASSCTMHGLGHIFGPGGLTLRRGLWATAVLLSLAAFLYQVAERVRYYGEFHHKTTLDERESHQLTFPAVTLCNINPLRRSRLTPNDLHWAGTALLGLDPAEHAAYLRALGQPPAPPGFMPSPTFDMAQLYARAGHSLEDMLLDCRYRGQPCGPENFTVIFTRMGQCYTFNSGAHGAELLTTPKGGAGNGLEIMLDVQQEEYLPIWKDMEETPFEVGIRVQIHSQDEPPAIDQLGFGAAPGHQTFVSCQQQQLSFLPPPWGDCNTASLDPDDFDPEPSDPLGSPRPRPSPPYSLIGCRLACESRYVARKCGCRMMHMPGNSPVCSPQQYKDCASPALDAMLRKDTCVCPNPCATTRYAKELSMVRIPSRASARYLARKYNRSESYITENVLVLDIFFEALNYEAVEQKAAYEVSELLGDIGGQMGLFIGASLLTILEILDYLCEVFQDRVLGYFWNRRSAQKRSGNTLLQEELNGHRTHVPHLSLGPRPPTTPCAVTKTLSASHRTCYLVTRL
# partner: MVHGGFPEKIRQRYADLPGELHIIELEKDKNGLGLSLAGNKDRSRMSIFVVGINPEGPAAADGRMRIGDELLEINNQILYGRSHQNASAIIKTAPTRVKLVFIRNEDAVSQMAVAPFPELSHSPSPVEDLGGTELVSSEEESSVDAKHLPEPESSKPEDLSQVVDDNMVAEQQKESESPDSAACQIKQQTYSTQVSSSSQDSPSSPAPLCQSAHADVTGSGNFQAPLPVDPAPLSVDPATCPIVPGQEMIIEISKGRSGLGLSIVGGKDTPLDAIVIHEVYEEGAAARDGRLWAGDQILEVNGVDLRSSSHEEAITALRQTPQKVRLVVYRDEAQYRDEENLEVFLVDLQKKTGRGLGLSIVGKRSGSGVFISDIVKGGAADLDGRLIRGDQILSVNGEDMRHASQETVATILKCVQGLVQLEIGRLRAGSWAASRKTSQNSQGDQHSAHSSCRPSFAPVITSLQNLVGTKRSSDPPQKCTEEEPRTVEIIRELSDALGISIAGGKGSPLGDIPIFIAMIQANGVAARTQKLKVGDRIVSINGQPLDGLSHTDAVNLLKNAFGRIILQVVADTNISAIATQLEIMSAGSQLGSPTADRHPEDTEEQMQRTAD
# Variants of: B1
# Conditions: with Patj
row,effect of a mutation on the interaction,Variant
1,disrupting interaction,L533F
